Source: publication PMC12057046, “Elucidation of short linear motif-based interactions of the MIT and rhodanese domains of the ubiquitin-specific protease 8” (Biology Direct, 2025)

B1: KIAA1614 peptide 568-583 (uncharacterized protein KIAA1614), 16-mer library wild type / USP8 rhodanese domain (ubiquitin carboxyl-terminal hydrolase 8, residues 174-317) (parent)
chain 1: GMERVLGGLSSPLRLL
chain 2: KCETKEKGAITAKELYTMMTDKNISLIIMDARRMQDYQDSCILHSLSVPEEAISPGVTASWIEAHLPDDSKDTWKKRGNVEYVVLLDWFSSAKDLQIGTTLRSLKDALFKWESKTVLRNEPLVLEGGYENWLLCYPQYTTNAKV
B2: TET3 peptide 1705-1720 (methylcytosine dioxygenase TET3), 16-mer library wild type / USP8 rhodanese domain (ubiquitin carboxyl-terminal hydrolase 8, residues 174-317) (parent)
chain 1: GLALWEAKMKQLAERA
chain 2: B1 chain 2

Variants of: B1
Experiment: peptide-phage display deep mutational scan (M13, 16-mer library, displayed with a C-terminal GGGSG linker encoded by the 3' flank) selected against the GST-tagged USP8 rhodanese domain, four rounds; NGS counts summed over selection …
Conditions: with USP8 rhodanese domain (ubiquitin carboxyl-terminal hydrolase 8, residues 174-317), 10 µg GST-bait on MaxiSorp, pre-cleared on GST, 2 h at 4 °C, five washes with 0.05% Tween 20 in PBS, not graded, scale: average over two replicas of the peptide's fractional NGS count

Screen value of substitutions, site by site:
chain 1 V5: P 0.00189, F 0.0191, G 0.00207, I 9.76e-05, K 6.6e-05, E 0.0217, D 0.0242, M 0.00268, T 0.0104, Y 0.00426, W 0.011, L 0.000344, S 0.000158, Q 0.014, R 0.000121, H 0.0085, N 0.00579, A 0.000433
chain 1 P12: L 6.32e-06, R 1.26e-05, S 0.000236, T 1.55e-05, Q 6.32e-06
chain 1 S11: E 0.000128, N 0.0195, Y 6.32e-06, A 1.26e-05, D 0.0401, R 6.32e-06, T 0.000682, V 2.18e-05, F 2.53e-05
chain 1 L6: P 0.000164, Q 1.9e-05, T 5.05e-05, V 6.32e-06, N 6.32e-06, G 6.88e-05, I 0.00654, F 6.32e-06, S 6.32e-06
chain 1 R14: N 5.27e-05, L 0.000793, H 0.000346, Q 3.44e-05, I 0.00646, K 0.000355, T 0.00135, Y 0.000377, F 0.00138, A 0.00719, S 0.00245, W 0.00337, G 1.9e-05, E 1.9e-05, V 0.0436, M 0.0219
chain 1 R4: N 1.9e-05, W 5.05e-05, T 6.32e-06, L 1.26e-05, A 1.55e-05
chain 1 L13: F 3.09e-05, P 1.26e-05, W 0.000724, S 0.00179, G 6.32e-05, Y 0.000122, K 6.32e-06, E 0.000467, N 6.32e-06, R 1.26e-05, V 0.000364, D 3.72e-05, T 0.00145, M 0.000258, H 2.53e-05, A 4.42e-05
chain 1 E3: W 0.000133, T 8.85e-05, F 6.32e-06, L 6.32e-05, S 0.000223, D 0.00356, Y 0.000118, H 0.00012, V 1.26e-05, A 0.000229, Q 0.00108, N 0.000897, P 9.48e-05
chain 1 M2: N 0.00694, S 0.00782, A 0.00538, Y 0.00188, Q 0.00237, D 0.0101, R 0.00145, G 0.0456, I 0.00918, E 0.0668, V 0.0166, P 0.0198, K 0.00296, H 0.0157, F 0.00131, L 0.00111, T 0.0119, W 0.000604
chain 1 G1: Y 0.000202, K 0.000202, E 0.000708, Q 0.0088, D 0.00131, F 6.32e-06, L 3.16e-05, H 0.00494, P 0.00104, V 3.79e-05, N 0.0012, I 8.36e-05, A 0.0197, W 0.00137, M 0.000324, S 0.00457, R 0.000532, T 0.00523
chain 1 S10: E 1.55e-05, A 6.32e-06, V 6.32e-06, I 6.32e-06, P 1.55e-05, H 0.00191
chain 1 L16: H 0.000246, P 1.26e-05, N 6.32e-06, Q 7.58e-05, G 6.32e-06, V 5.05e-05, M 0.00379, I 0.000468, A 1.55e-05, T 1.55e-05, F 2.53e-05
chain 1 L9: V 0.00586, W 0.000202, R 1.26e-05, T 0.0151, F 3.79e-05, D 0.0392, Q 0.0169, K 9.69e-05, E 0.164, H 4.07e-05, N 0.00178, Y 6.18e-05, G 9.76e-05, S 0.000763, P 0.000947, M 9.62e-05, A 0.00126, I 0.000484
chain 1 G8: V 0.000138, D 6.32e-06, T 6.32e-06, N 1.26e-05
chain 1 L15: N 1.26e-05, G 1.26e-05, A 1.26e-05, I 6.32e-06, V 1.26e-05
chain 1 G7: P 1.55e-05, K 1.55e-05, I 0.000523, Y 0.000924, R 0.00011, Q 0.00689, H 0.000322, E 0.00446, A 0.00275, T 0.0883, L 0.000596, W 6.32e-06, S 0.000797, M 0.00706, F 0.00722, D 0.0412, V 0.0068, N 0.00247

Variants of: B2
Experiment: as above
Conditions: with USP8 rhodanese domain (ubiquitin carboxyl-terminal hydrolase 8, residues 174-317), 10 µg GST-bait on MaxiSorp, pre-cleared on GST, 2 h at 4 °C, five washes with 0.05% Tween 20 in PBS, not graded, scale: average over two replicas of the peptide's fractional NGS count

Screen value of substitutions, site by site:
chain 1 R15: W 0.000125, S 0.0149, V 2.45e-05, T 0.00935, Q 0.0216, Y 0.0485
chain 1 W5: S 7.78e-05, G 7.36e-05, K 8.66e-06, F 4.33e-06, R 1.58e-05, P 4.33e-05, T 4.33e-06, V 4.33e-06, H 4.33e-06, M 0.00029, L 1.15e-05
